{"source": "paper PMC10779317", "biological_target": "Dnmt3a-CD (mouse (murine)) (UniProt O88508)", "sequence (O88508 630-908)": "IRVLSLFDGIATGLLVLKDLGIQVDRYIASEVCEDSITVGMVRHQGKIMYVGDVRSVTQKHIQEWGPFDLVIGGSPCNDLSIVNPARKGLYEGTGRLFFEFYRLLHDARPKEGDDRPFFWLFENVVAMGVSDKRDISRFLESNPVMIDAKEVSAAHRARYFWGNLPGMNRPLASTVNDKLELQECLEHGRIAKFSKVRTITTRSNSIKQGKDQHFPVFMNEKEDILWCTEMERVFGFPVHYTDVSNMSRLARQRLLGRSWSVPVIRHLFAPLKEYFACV", "experiment": "competition (inhibition of 30Uf/30Df methylation)", "conditions": "20 mM HEPES-NaOH pH 7.5, 100 mM KCl, 1 mM EDTA, 1 mM DTT, 100 uM AdoHcy, 10 nM DNA (60 nM for PWWP); FP temperature not stated; methylation competition at 37 C …", "note": "pIC50: −log10 of the molar value.", "data": [{"sequence": "TGGGGAGGGTGAGGAGTGTGGGGAAGG [27G4-mut]", "values": [{"measurement": "pIC50", "result": 5.96}]}]}
